Data on 20 molecules can be found in patent US20210269480A1 (published 2021).

*1 amine or outer side, *2 acyl side, *3 side chain or, on linkers, in order; H or OH if unused. Bridges are numbered along the chain shown (N, C = ends). Where no end group is shown, it is not given here. [ ]: non-standard residue; d: D form. TATA = O=C(CC[*:1])N1CN(C(=O)CC[*:2])CN(C(=O)CC[*:3])C1; hArg = N=C(N)NCCCC[C@H](N)C(=O)O; βAla = NCCC(=O)O; Sar = CNCC(=O)O

First the molecules themselves.
T1: human Nectin-4 (human, UniProt Q96NY8 32-349)
T1 construct: a Gly32-Ser349 FLAG construct is described only under the SPR assay; also called PVRL4
T1 sequence (looked up): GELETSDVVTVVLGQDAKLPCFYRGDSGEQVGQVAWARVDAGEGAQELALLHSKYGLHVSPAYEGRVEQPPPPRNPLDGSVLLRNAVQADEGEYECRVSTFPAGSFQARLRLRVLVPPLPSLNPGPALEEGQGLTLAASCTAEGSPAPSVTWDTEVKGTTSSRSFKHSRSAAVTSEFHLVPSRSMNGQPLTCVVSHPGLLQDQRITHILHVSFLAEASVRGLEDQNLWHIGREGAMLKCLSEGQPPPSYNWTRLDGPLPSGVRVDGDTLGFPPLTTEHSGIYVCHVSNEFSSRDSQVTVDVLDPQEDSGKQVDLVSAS

This experiment addresses T1, human Nectin-4. Briefly: FP competition, tracer SEQ ID NO 217. As for the experimental part: Peptides were diluted to an appropriate concentration in assay buffer as described in the direct binding assay with a maximum of 5% DMSO, then serially diluted 1 in 2. […] Measurements were conducted as for the direct binding assay, however the gain was determined prior to the first measurement. Data analysis was in Systat Sigmaplot version 12.0 where the mP values were fit to a user defined cubic equation to generate a Ki value: […]
The term Ki denotes the equilibrium dissociation constant of an inhibitor or competing ligand from its target. Low readings indicate tighter binding, high ones weaker binding. Turning to Ac-CPFGCMKNWSWPIWC (linker 1-5-15 via TATA, also called 80-09-02-N008) [BCY7390], the affinity, expressed as Ki, was 17.1 nM.
For Ac-CPFGCMKNWSFPIWC (linker 1-5-15 via TATA) [BCY7589], affinity was put at a Ki of 34.5 nM.
As for Ac-CGFGCMKNWSWPIWC (linker 1-5-15 via TATA) [BCY7607], the figure is 77 nM; as for Ac-CPFGCMKNWSWPIYC (linker 1-5-15 via TATA) [BCY7597], 169 nM; as for Ac-CPFGCMKNWSYPIWC (linker 1-5-15 via TATA) [BCY7590], 38.5 nM.
The value for Ac-CPFGCMPNWSWPIWC (linker 1-5-15 via TATA) [BCY7614] was 21 nM; that for Ac-CPFGCMKNWSDPIWC (linker 1-5-15 via TATA, also called 80-09-02-N022) [BCY7540] was 357 nM.
On to Ac-CPFGCMKNWSWPIFC (linker 1-5-15 via TATA) [BCY7596], for which the inhibitory constant (Ki) came to 353 nM.
As to [βAla][Sar][Sar][Sar][Sar][Sar]CPF[dD]CM[hArg]NWSWPIWC (linker 7-11-21 via TATA) [BCY7556], the Ki was found to be 26.1 nM.
As for Ac-CPF[dD]CM[hArg]NWSTPPWC (linker 1-5-15 via TATA) [BCY8036], the figure is 7.5 nM.
With Ac-CPF[dD]CM[hArg]NWSTPKWC (linker 1-5-15 via TATA) [BCY8085], the affinity corresponds to a Ki of 15.1 nM.
The value for Ac-CPF[dD]CL[hArg]NWSTPPWC (linker 1-5-15 via TATA) [BCY8038] was 8 nM; that for [βAla][Sar][Sar][Sar][Sar][Sar]CPF[dA]CM[hArg]NWSWPIWC (linker 7-11-21 via TATA) [BCY7557] was 22.5 nM; that for Ac-CPY[dD]CM[hArg]NWSTPIWC (linker 1-5-15 via TATA) [BCY8040] was 10.8 nM.
As for {Ac-βAla}-[Sar][Sar][Sar][Sar][Sar]CPF[dD]CM[hArg]NWSWPIWC (linker 6-10-20 via TATA) [BCY7558], the figure is 21.9 nM.
The molecule Ac-CPF[dD]CL[hArg]NWSTPIWC (linker 1-5-15 via TATA) [BCY8039] returned a Ki of 21.4 nM.
In turn, Ac-CPF[dD]CM[hArg]KWSTPIWC (linker 1-5-15 via TATA) [BCY7822] gave an inhibition constant (Ki) of 27 nM.
As for Ac-CPF[dD]CK[hArg]NWSTPIWC (linker 1-5-15 via TATA) [BCY7821], the figure is 84 nM.
Consider {Ac-βAla}-[Sar][Sar][Sar][Sar][Sar]CPF[dA]CM[hArg]NWSWPIWC (linker 6-10-20 via TATA) [BCY7559], for which affinity was put at a Ki of 17 nM.
The value for Ac-[dD]CPFGCMKNWSWPIWC (linker 2-6-16 via TATA) [BCY7606] was 34 nM.
